Data: the nanobody polyreactivity screen of Harvey et al. (2022)

Assay: yeast display, Sf9 membrane polyspecificity reagent, FACS + sequencing; frameworks hold sequencing errors
Summary of the method: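 Genes from sorted yeast were amplified by colony PCR, read by MiSeq 2 × 250 sequencing and filtered on CDR length. These cells carried a synthetic nanobody library in Saccharomyces cerevisiae BJ5465 and were sorted by FACS into low and high (top ~1%) gates on anti-HA and streptavidin fluorescence. Polyreactivity is labelled according to the gate of origin.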
With “QVQLVESGGGLVQAGGSLRLSCAASGRIFVYNAMGWYRQAPGKERELVASISWSGDSTYADSVKGRFTISRDNAKNTVYLQMNSLKPEDTAVYYCAAYSQADYQNMDYWGQGTQVTVSS” the “polyreactivity (PSR sort gate)” value was “low polyreactivity”.
For “QVQLVESGGGLVQAGGSLRLSCAASGRIFVYNVMGWYRQAPGKERELVAAISWGTGSTYADSVKGRFTISRDNAKNTVYLQMNSLKPEDTAVYYCAADWLSTKNDYWGQGTQVTVSS”, the “polyreactivity (PSR sort gate)” value was “low polyreactivity”.
In the case of “QVQLVESGGGLVQAGGSLRLSCAASGRIFVYNVMGWYRQAPGKERELVADISVGGGSTYYADSVKGRFTISRDNAKNTVYLQMNSLKPEDTAVYYCAASYYSGQSVRDDIMYYWGQGTQVTVSS”, the “polyreactivity (PSR sort gate)” value is reported as “low polyreactivity”.
For “QVQLVESGGGLVQAGGSLRLSCAASGRIFVYYDMGWYRQAPGKEREVVAAISSTGGSTNYADSVKGRFTISRDNAKNTVYLQMNSLKPEDTAVYYCNAALWRIAYPYGYYQYDYWGQGTQVTVSS”, the “polyreactivity (PSR sort gate)” value was “low polyreactivity”.
For “QVQLVESGGGLVQAGGSLRLSCAASGRIFVYYTMGWYRQAPGKERELVAAITGSGGSTYYADSVKGRFTISRDNAKNTVYLQMNSLKPEDTAVYYCAVYDSYRKFKYWGQGTQVTVSS”, the “polyreactivity (PSR sort gate)” value was “high polyreactivity”.
In the case of “QVQLVESGGGLVQAGGSLRLSCAASGRIFWDYGMGWYRQAPGKERELVAVITWGGGSTYYADSVKGRFTISRDNAKNTVYLQMNSLKPEDTAVYYCAKEYHYYYWGQGTQVTVSS”, the “polyreactivity (PSR sort gate)” value is reported as “low polyreactivity”.
In the case of “QVQLVESGGGLVQAGGSLRLSCAASGRIFWFYAMGWYRQATGKERELVAAINTSVGRTHYADSVKGRFTISRDNAKNTVYLQMNSLKPEDTAVYYCASDVKRYGWEYGYWGQGTQVTVSS”, the “polyreactivity (PSR sort gate)” value is reported as “low polyreactivity”.
For “QVQLVESGGGLVQAGGSLRLSCAASGRIFWFYTMGWYRQAPGKERELVAAISTSGGSTYYADSVKGRFTISRDNAKNTVYLQMNSLKPEDTAVYYCAAQNGYYPQHDYWGQGTQVTVSS”, the “polyreactivity (PSR sort gate)” value was “high polyreactivity”.
In the case of “QVQLVESGGGLVQAGGSLRLSCAASGRIFWGYAMGWYRQAPGKERELVAAINRGSSTYYADSVKGRFTISRDNAKNTVYLQMNSLKPEDTAVYYCAVKGYLPYTGIFDYWGQGTQVTVSS”, the “polyreactivity (PSR sort gate)” value is reported as “high polyreactivity”.
In the case of “QVQLVESGGGLVQAGGSLRLSCAASGRIFWINALGWYRQAPGKERELVAAISWRGDSTYYADSVKGRFTISRDNAKNTVYLQMNSLKPEDTAVYYCAATWYSWGSEFDYWGQGTQVTVSS”, the “polyreactivity (PSR sort gate)” value is reported as “high polyreactivity”.
In the case of “QVQLVESGGGLVQAGGSLRLSCAASGRIFWRNALGWYRQAPGKERELVAAITYSGGSTYYADSVKGRFTISRDNAKNTVYVQMNSLNPEDTAVYYCNTVEGWRYYGQSLYAYYYWGQGTQVTVSS”, the “polyreactivity (PSR sort gate)” value is reported as “high polyreactivity”.
In the case of “QVQLVESGGGLVQAGGSLRLSCAASGRIFWRNAMGWNRQAPGKERELVAAISSGGSTYYADSVKGRFTISRDNAKNTVYLQMNSLKPEDTAVYYCAARSSWRGGSYDHFERDYWGQGTQVTVSS”, the “polyreactivity (PSR sort gate)” value is reported as “high polyreactivity”.
With “QVQLVESGGGLVQAGGSLRLSCAASGRIFWSYAMGWYRQAPGKERELVAAISYSGGGTYYADSVKGRFTISRDNAKNTVYLQMNSLKPEDTAVYYCAAETYYAPYDYWGQGTQVTVSS” the “polyreactivity (PSR sort gate)” value was “high polyreactivity”.
With “QVQLVESGGGLVQAGGSLRLSCAASGRIFWTNAMGWYRQAPGKERELVAAISRSGGSTYYADSVKGRFTISRDNAKNTVYLQMNSLKPEDTAVYYCAARAGRRPYDYWGQGTQVTVSS” the “polyreactivity (PSR sort gate)” value was “high polyreactivity”.
With “QVQLVESGGGLVQAGGSLRLSCAASGRIFWTNDMGWYRQAPGKERELVAVISSDTGSTDYADSVKGRFTISRDNAKNTVYLQMNSLKPEDTAVFYCNKRGLSRVNYWGQGTQVTVSS” the “polyreactivity (PSR sort gate)” value was “low polyreactivity”.
With “QVQLVESGGGLVQAGGSLRLSCAASGRIFWTYAMGWYRPAPGKERELVAAITWRGGSTSYADSVKGRFTISRDNAKNTVYLQMNSLKPEDTAVYYCNARYSGYSPWGNDYWGQGTQVTVSS” the “polyreactivity (PSR sort gate)” value was “high polyreactivity”.
With “QVQLVESGGGLVQAGGSLRLSCAASGRIFWVNAMGWYRQAPGKEREFVAAISWSGGSTYADSVKGRFTISRDNAKNTVYLQMNSLKPEDTAVYYCAADRYNGRYGYWGQGTQVTVSS” the “polyreactivity (PSR sort gate)” value was “high polyreactivity”.
For “QVQLVESGGGLVQAGGSLRLSCAASGRIFWVNAMGWYRQAPGKERELVARIRGRSGSTYYADSVKGRFTISRDNAKNTVYLQMHSLKPEDTAVYYCNADFNRKVAGTPEVDYWGQGTQVTVSS”, the “polyreactivity (PSR sort gate)” value was “high polyreactivity”.
For “QVQLVESGGGLVQAGGSLRLSCAASGRIFWYNAMGWYRQAPAKERELVAGITRSGGRTYYADSVKGRFTISRDNAKNTVYLQMNSLKPEDTAVYYCAAAPYARRDYEYWGQGTQVTVSS”, the “polyreactivity (PSR sort gate)” value was “high polyreactivity”.
In the case of “QVQLVESGGGLVQAGGSLRLSCAASGRIFWYNAMGWYRQAPGKERELVAVISTRGGRTYYADSVKGRFTISRDNAKNTVYLQMNSLKPEDTAVYYCAAEFLNKAVGGVTSIYDSWGQGTQVTVSS”, the “polyreactivity (PSR sort gate)” value is reported as “low polyreactivity”.
With “QVQLVESGGGLVQAGGSLRLSCAASGRIFWYYAMGWYRQAPGKERELVAAINSGGNTNYADSVKGRFTISRDNAKNTVYLQMNSLKPEDTAVYYCNAGRRYDTYPGDYWGQGSQVTVSS” the “polyreactivity (PSR sort gate)” value was “high polyreactivity”.
In the case of “QVQLVESGGGLVQAGGSLRLSCAASGRIFWYYAMGWYRQAPGKERELVAAITRGGITTYADSVKGRYTISRDNAKNTVYLQMNSLKPEDTAVYYCNAVPWYGRMDYWGQGTQVTVSS”, the “polyreactivity (PSR sort gate)” value is reported as “low polyreactivity”.
With “QVQLVESGGGLVQAGGSLRLSCAASGRIFWYYAMGWYRQAPGKERELVAAITRSGASTYYADSVKGRFTISRDNAKNTVYLQMNSLKREDTAVYYCAADTGRYRYVYEYYYWGLGTQVTVSS” the “polyreactivity (PSR sort gate)” value was “high polyreactivity”.
In the case of “QVQLVESGGGLVQAGGSLRLSCAASGRIFWYYAMGWYRQAPGKERELVARISSSGGSTYYADSVKGRFTISRDNAKNTVYLQMNSLKTDYTAVYFWAKERYSGSSRYPMDYWGQGTQVTVSS”, the “polyreactivity (PSR sort gate)” value is reported as “high polyreactivity”.
With “QVQLVESGGGLVQAGGSLRLSCAASGRIFWYYAMGWYRQAPGKEWELVATITYSGVRTYYADSVKGRFTISRDNAKNTVYLQMNSLKPEDTAVYYCAAVPGASVYGYYWKFGYWGQGTQVTVSS” the “polyreactivity (PSR sort gate)” value was “high polyreactivity”.
In the case of “QVQLVESGGGLVQAGGSLRLSCAASGRIFWYYTMGWYRQAPGKERELVAAISNGGSTYYADSVKGRFTISRDNAKNTVYLQMNSLKPEDTAVYYCAAVGARGGYFRMDYWGQGTQVTVSS”, the “polyreactivity (PSR sort gate)” value is reported as “high polyreactivity”.
In the case of “QVQLVESGGGLVQAGGSLRLSCAASGRIFYANAMGWYRQAPGKERELVAAISSGGSTYYADSVKGRFTISRDNAKNTVYLQMNSLKPEDTAVYYCAALYWVYFYSEYGPWRYDYWGQGTQVTVSS”, the “polyreactivity (PSR sort gate)” value is reported as “low polyreactivity”.
For “QVQLVESGGGLVQAGGSLRLSCAASGRIFYDNAMGWYRQAPGKERELVAAISYSGDSTYYADSVKGRFTISRDNAKNTVYVQMNSLKPEDTAVYYCAAVYISQGAFAYDYWGQGTQVTVSS”, the “polyreactivity (PSR sort gate)” value was “low polyreactivity”.
In the case of “QVQLVESGGGLVQAGGSLRLSCAASGRIFYENAMGWYRQAPGKDRELVAAISGSGGSTYYADSVKGRFTISRDNAKNTVYLQMNSLKPEDTAVYYCNAYRRVPGYDYWGQGTQVTVSS”, the “polyreactivity (PSR sort gate)” value is reported as “high polyreactivity”.
With “QVQLVESGGGLVQAGGSLRLSCAASGRIFYEYAMGWYRQAPGKDRELVAAISNSGGSTYYAHSVKGRFTISRDNAKNTVYLQMNSLQPEDTAVYYCAATVRLPNGVRYGYWGQGTQVTGSS” the “polyreactivity (PSR sort gate)” value was “high polyreactivity”.
With “QVQLVESGGGLVQAGGSLRLSCAASGRIFYFNAKGGYRQAPGKERELVAAIRNDTRTYYADSVKGRFTISRDNAKNTVYLQLNSLKPEDTAVYYCAARVYFSVITPIKYNYWGQGTQVTVSS” the “polyreactivity (PSR sort gate)” value was “high polyreactivity”.
With “QVQLVESGGGLVQAGGSLRLSCAASGRIFYFNAMGWYRQAPGKEREFVASINSIGDSTYYADSVKGRFTISRDYAKNTVYLQMNRLKPEDTAVYYCNADHGVINYRLDYWGQGTQVTVSS” the “polyreactivity (PSR sort gate)” value was “low polyreactivity”.
For “QVQLVESGGGLVQAGGSLRLSCAASGRIFYFNAMGWYRQAPGKERELVAAISWSGSRTFYADSVTGRFTISRDNAKNTVYLQMNSLKPEDTAVYYCAVRGYMWNAGNTIRRDYWGQGTQVTVSS”, the “polyreactivity (PSR sort gate)” value was “high polyreactivity”.
In the case of “QVQLVESGGGLVQAGGSLRLSCAASGRIFYFYALGWYRQAPGKERDLVAAINIGGSTNYADSVKGRFTISRDNAKNTVYLQMNSLNPEDTAVYYCNAEAYSRSDYYRYDYWGQGTQVTVSS”, the “polyreactivity (PSR sort gate)” value is reported as “low polyreactivity”.
In the case of “QVQLVESGGGLVQAGGSLRLSCAASGRIFYFYAMGWYRQAPGKERELVAAITGSAGGTYYADSVKGRFTISRDNAKNTVYLQMNSLKPEDTAVYYCNAGSTRYWRSRYDYWGQGTQVTVSS”, the “polyreactivity (PSR sort gate)” value is reported as “low polyreactivity”.
In the case of “QVQLVESGGGLVQAGGSLRLSCAASGRIFYFYAMGWYRQAPGKERELVASISSGSSTNYADSVKGRFTISRDNAKNTVYLQMNSLKPEDTAVYYCAAQPWHGSRPRSYYWGQGTQVTVSS”, the “polyreactivity (PSR sort gate)” value is reported as “high polyreactivity”.
With “QVQLVESGGGLVQAGGSLRLSCAASGRIFYFYAMGWYRQAPGKERELVASISYSGGNTYYADSVKGRFTISRDNAKNTVYLQMNSLKPEDNAVYYCNVLPNTGARGYYYWGQGTQVTVSS” the “polyreactivity (PSR sort gate)” value was “low polyreactivity”.
In the case of “QVQLVESGGGLVQAGGSLRLSCAASGRIFYGNTMGWYRQAPGKERELVAAITWRGGSTYYADSVKGRFTISRDNAKNTVYLQMNSLKPEVTAVYYCAAVSYRGRGYWGQGTQVTVSS”, the “polyreactivity (PSR sort gate)” value is reported as “high polyreactivity”.
For “QVQLVESGGGLVQAGGSLRLSCAASGRIFYGYAIGWYRQAPGKEREFVARINVSGTSTFYADSVKGRFTISRDNAKNTVYLQMTSLKPEDTAVYDCAARGLPSNDYYYVHGYIMDYWGQGTQVTVSS”, the “polyreactivity (PSR sort gate)” value was “low polyreactivity”.
With “QVQLVESGGGLVQAGGSLRLSCAASGRIFYGYARGWYRQAPGKERELVATITWSGGSTYYADSVKGRFTISRDNAKNTVYLQMNSLNPEDTAVYYCAAYSPYIYQAYRYDYWGQGTQVTVSS” the “polyreactivity (PSR sort gate)” value was “low polyreactivity”.
With “QVQLVESGGGLVQAGGSLRLSCAASGRIFYGYTMGWARQAPGKERQLVAAITWSGGSTYYADSVKGRFTISRDNAKYSVYLQMNSLKPKDTAVYYCAATLGNAADYDYGYWGQGTQVTVSS” the “polyreactivity (PSR sort gate)” value was “high polyreactivity”.
